The source of these data is patent US11008403 (dated 2021).

The target in assay [1] is T1, cyno TfR ECD (cynomolgus).
T1 chain: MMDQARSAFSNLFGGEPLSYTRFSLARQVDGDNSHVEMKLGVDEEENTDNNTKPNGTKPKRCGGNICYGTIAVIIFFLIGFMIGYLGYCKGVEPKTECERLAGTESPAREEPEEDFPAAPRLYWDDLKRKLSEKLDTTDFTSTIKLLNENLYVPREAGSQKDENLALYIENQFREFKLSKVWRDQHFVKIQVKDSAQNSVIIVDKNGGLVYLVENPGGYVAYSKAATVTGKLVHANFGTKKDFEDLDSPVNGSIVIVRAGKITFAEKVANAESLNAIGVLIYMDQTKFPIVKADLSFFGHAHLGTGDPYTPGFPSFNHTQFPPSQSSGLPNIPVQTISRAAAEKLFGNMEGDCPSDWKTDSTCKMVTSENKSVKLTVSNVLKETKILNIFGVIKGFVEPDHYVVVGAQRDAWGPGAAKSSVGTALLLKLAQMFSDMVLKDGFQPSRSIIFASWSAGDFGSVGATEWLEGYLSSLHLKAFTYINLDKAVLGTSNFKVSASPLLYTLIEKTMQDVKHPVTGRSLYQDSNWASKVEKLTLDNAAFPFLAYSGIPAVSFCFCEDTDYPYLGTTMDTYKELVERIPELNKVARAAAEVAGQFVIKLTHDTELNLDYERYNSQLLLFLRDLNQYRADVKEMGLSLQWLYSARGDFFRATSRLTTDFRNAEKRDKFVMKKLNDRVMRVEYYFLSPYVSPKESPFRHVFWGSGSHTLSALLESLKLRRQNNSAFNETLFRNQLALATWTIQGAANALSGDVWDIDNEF
The assay can be described thus: ELISA. In general terms: ELISA stands for enzyme-linked immunosorbent assay.

Assay [2] has as its target human TfR ECD (human). Nature of the assay: ELISA.

Sequence of human TfR ECD (human) (chain, as listed by the source): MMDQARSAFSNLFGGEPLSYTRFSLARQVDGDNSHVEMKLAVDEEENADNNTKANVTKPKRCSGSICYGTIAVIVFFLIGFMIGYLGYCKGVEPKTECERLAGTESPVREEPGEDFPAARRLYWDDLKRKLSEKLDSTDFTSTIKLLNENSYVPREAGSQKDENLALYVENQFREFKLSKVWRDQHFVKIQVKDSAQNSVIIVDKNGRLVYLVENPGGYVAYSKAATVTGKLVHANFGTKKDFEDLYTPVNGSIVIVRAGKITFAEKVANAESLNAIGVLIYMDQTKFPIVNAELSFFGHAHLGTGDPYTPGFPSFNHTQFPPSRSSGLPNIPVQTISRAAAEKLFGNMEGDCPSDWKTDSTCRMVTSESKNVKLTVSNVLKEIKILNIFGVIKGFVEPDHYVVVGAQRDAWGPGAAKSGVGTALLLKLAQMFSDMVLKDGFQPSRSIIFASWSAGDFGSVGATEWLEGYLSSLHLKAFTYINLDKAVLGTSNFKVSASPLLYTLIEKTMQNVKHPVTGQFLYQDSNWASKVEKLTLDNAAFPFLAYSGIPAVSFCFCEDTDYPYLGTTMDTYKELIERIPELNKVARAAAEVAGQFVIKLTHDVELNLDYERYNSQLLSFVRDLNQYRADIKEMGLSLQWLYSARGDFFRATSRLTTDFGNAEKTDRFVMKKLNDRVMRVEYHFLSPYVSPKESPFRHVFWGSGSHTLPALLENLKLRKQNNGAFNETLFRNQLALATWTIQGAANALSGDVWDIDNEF

B1: hu15G11.v5 HC Y27A (antibody, V domains shown)
VH: EVQLVQSGAEVKKPGASVKVSCKASGATFTSYWMHWVRQAPGQRLEWIGEINPTNGRTNYIEKFKSRATLTVDKSASTAYMELSSLRSEDTAVYYCARGTRAYHYWGQGTMVTVSS
VL: DIQMTQSPSSLSASVGDRVTITCRASDNLYSNLAWYQQKPGKSPKLLVYDATNLADGVPSRFSGSGSGTDYTLTISSLQPEDFATYYCQHFWGTPLTFGQGTKVEIK
The term EC50 denotes the concentration needed to bring the measured effect to its halfway point. Regarding B1, the values for the half-maximal effective concentration (EC50) in assay [1] and in assay [2] were 1470 ng/mL and 21.1 ng/mL, respectively.

B2: hu15G11.v5 HC W33A (antibody, V domains shown)
VH: EVQLVQSGAEVKKPGASVKVSCKASGYTFTSYAMHWVRQAPGQRLEWIGEINPTNGRTNYIEKFKSRATLTVDKSASTAYMELSSLRSEDTAVYYCARGTRAYHYWGQGTMVTVSS
VL: DIQMTQSPSSLSASVGDRVTITCRASDNLYSNLAWYQQKPGKSPKLLVYDATNLADGVPSRFSGSGSGTDYTLTISSLQPEDFATYYCQHFWGTPLTFGQGTKVEIK
For the molecule B2, the EC50 is 362 ng/mL in assay [1] and 59.6 ng/mL in assay [2].

B3: hu15G11.v5 LC L33A (antibody, V domains shown)
VH: EVQLVQSGAEVKKPGASVKVSCKASGYTFTSYWMHWVRQAPGQRLEWIGEINPTNGRTNYIEKFKSRATLTVDKSASTAYMELSSLRSEDTAVYYCARGTRAYHYWGQGTMVTVSS
VL: DIQMTQSPSSLSASVGDRVTITCRASDNLYSNAAWYQQKPGKSPKLLVYDATNLADGVPSRFSGSGSGTDYTLTISSLQPEDFATYYCQHFWGTPLTFGQGTKVEIK
Consider B3, for which the EC50 in assay [1] was found to be 0.1 ng/mL; in assay [2], 0.05 ng/mL.

B4: hu15G11.v5 LC N32A (antibody, V domains shown)
VH: EVQLVQSGAEVKKPGASVKVSCKASGYTFTSYWMHWVRQAPGQRLEWIGEINPTNGRTNYIEKFKSRATLTVDKSASTAYMELSSLRSEDTAVYYCARGTRAYHYWGQGTMVTVSS
VL: DIQMTQSPSSLSASVGDRVTITCRASDNLYSALAWYQQKPGKSPKLLVYDATNLADGVPSRFSGSGSGTDYTLTISSLQPEDFATYYCQHFWGTPLTFGQGTKVEIK
In the case of B4, the EC50 in assay [1] worked out at 4 ng/mL; in assay [2] it was 1.6 ng/mL.

B5: hu15G11.v5 HC F29A (antibody, V domains shown)
VH: EVQLVQSGAEVKKPGASVKVSCKASGYTATSYWMHWVRQAPGQRLEWIGEINPTNGRTNYIEKFKSRATLTVDKSASTAYMELSSLRSEDTAVYYCARGTRAYHYWGQGTMVTVSS
VL: DIQMTQSPSSLSASVGDRVTITCRASDNLYSNLAWYQQKPGKSPKLLVYDATNLADGVPSRFSGSGSGTDYTLTISSLQPEDFATYYCQHFWGTPLTFGQGTKVEIK
With B5, the EC50 in assay [1] came out at 12.5 ng/mL; in assay [2], 1.5 ng/mL.

B6: hu15G11.v5 LC D50A (antibody, V domains shown)
VH: EVQLVQSGAEVKKPGASVKVSCKASGYTFTSYWMHWVRQAPGQRLEWIGEINPTNGRTNYIEKFKSRATLTVDKSASTAYMELSSLRSEDTAVYYCARGTRAYHYWGQGTMVTVSS
VL: DIQMTQSPSSLSASVGDRVTITCRASDNLYSNLAWYQQKPGKSPKLLVYAATNLADGVPSRFSGSGSGTDYTLTISSLQPEDFATYYCQHFWGTPLTFGQGTKVEIK
For the molecule B6, the EC50 is 0.5 ng/mL in assay [1] and 0.2 ng/mL in assay [2].

B7: hu15G11.v5 LC N53A (antibody, V domains shown)
VH: EVQLVQSGAEVKKPGASVKVSCKASGYTFTSYWMHWVRQAPGQRLEWIGEINPTNGRTNYIEKFKSRATLTVDKSASTAYMELSSLRSEDTAVYYCARGTRAYHYWGQGTMVTVSS
VL: DIQMTQSPSSLSASVGDRVTITCRASDNLYSNLAWYQQKPGKSPKLLVYDATALADGVPSRFSGSGSGTDYTLTISSLQPEDFATYYCQHFWGTPLTFGQGTKVEIK
Consider B7, for which the EC50 in assay [1] is 0.6 ng/mL; in assay [2] it was 0.3 ng/mL.

B8: hu15G11.v5 HC M34A (antibody, V domains shown)
VH: EVQLVQSGAEVKKPGASVKVSCKASGYTFTSYWAHWVRQAPGQRLEWIGEINPTNGRTNYIEKFKSRATLTVDKSASTAYMELSSLRSEDTAVYYCARGTRAYHYWGQGTMVTVSS
VL: DIQMTQSPSSLSASVGDRVTITCRASDNLYSNLAWYQQKPGKSPKLLVYDATNLADGVPSRFSGSGSGTDYTLTISSLQPEDFATYYCQHFWGTPLTFGQGTKVEIK
Turning to B8, the EC50 in assay [1] stood at 1.1 ng/mL; in assay [2] it was 0.4 ng/mL.

B9: hu15G11.v5 LC D56A (antibody, V domains shown)
VH: EVQLVQSGAEVKKPGASVKVSCKASGYTFTSYWMHWVRQAPGQRLEWIGEINPTNGRTNYIEKFKSRATLTVDKSASTAYMELSSLRSEDTAVYYCARGTRAYHYWGQGTMVTVSS
VL: DIQMTQSPSSLSASVGDRVTITCRASDNLYSNLAWYQQKPGKSPKLLVYDATNLAAGVPSRFSGSGSGTDYTLTISSLQPEDFATYYCQHFWGTPLTFGQGTKVEIK
On to B9, for which the EC50 worked out at 0.5 ng/mL in assay [1] and 0.3 ng/mL in assay [2].

B10: hu15G11.v5 LC S31A (antibody, V domains shown)
VH: EVQLVQSGAEVKKPGASVKVSCKASGYTFTSYWMHWVRQAPGQRLEWIGEINPTNGRTNYIEKFKSRATLTVDKSASTAYMELSSLRSEDTAVYYCARGTRAYHYWGQGTMVTVSS
VL: DIQMTQSPSSLSASVGDRVTITCRASDNLYANLAWYQQKPGKSPKLLVYDATNLADGVPSRFSGSGSGTDYTLTISSLQPEDFATYYCQHFWGTPLTFGQGTKVEIK
Regarding B10, the results for the EC50 in assay [1] and in assay [2] were 0.7 ng/mL and 0.3 ng/mL, respectively.

B11: hu15G11.v5 HC S31A (antibody, V domains shown)
VH: EVQLVQSGAEVKKPGASVKVSCKASGYTFTAYWMHWVRQAPGQRLEWIGEINPTNGRTNYIEKFKSRATLTVDKSASTAYMELSSLRSEDTAVYYCARGTRAYHYWGQGTMVTVSS
VL: DIQMTQSPSSLSASVGDRVTITCRASDNLYSNLAWYQQKPGKSPKLLVYDATNLADGVPSRFSGSGSGTDYTLTISSLQPEDFATYYCQHFWGTPLTFGQGTKVEIK
For B11, the results for the EC50 in assay [1] and in assay [2] were 0.1 ng/mL and 0.05 ng/mL, respectively.

B12: hu15G11.v5 LC T52A (antibody, V domains shown)
VH: EVQLVQSGAEVKKPGASVKVSCKASGYTFTSYWMHWVRQAPGQRLEWIGEINPTNGRTNYIEKFKSRATLTVDKSASTAYMELSSLRSEDTAVYYCARGTRAYHYWGQGTMVTVSS
VL: DIQMTQSPSSLSASVGDRVTITCRASDNLYSNLAWYQQKPGKSPKLLVYDAANLADGVPSRFSGSGSGTDYTLTISSLQPEDFATYYCQHFWGTPLTFGQGTKVEIK
Take B12: the EC50 in assay [1] was determined as 0.3 ng/mL; in assay [2], 0.2 ng/mL.

B13: hu15G11.v5 LC Y30A (antibody, V domains shown)
VH: EVQLVQSGAEVKKPGASVKVSCKASGYTFTSYWMHWVRQAPGQRLEWIGEINPTNGRTNYIEKFKSRATLTVDKSASTAYMELSSLRSEDTAVYYCARGTRAYHYWGQGTMVTVSS
VL: DIQMTQSPSSLSASVGDRVTITCRASDNLASNLAWYQQKPGKSPKLLVYDATNLADGVPSRFSGSGSGTDYTLTISSLQPEDFATYYCQHFWGTPLTFGQGTKVEIK
As to B13, the results for the EC50 in assay [1] and in assay [2] were 1 ng/mL and 0.3 ng/mL, respectively.

B14: hu15G11.v5 HC Y32A (antibody, V domains shown)
VH: EVQLVQSGAEVKKPGASVKVSCKASGYTFTSAWMHWVRQAPGQRLEWIGEINPTNGRTNYIEKFKSRATLTVDKSASTAYMELSSLRSEDTAVYYCARGTRAYHYWGQGTMVTVSS
VL: DIQMTQSPSSLSASVGDRVTITCRASDNLYSNLAWYQQKPGKSPKLLVYDATNLADGVPSRFSGSGSGTDYTLTISSLQPEDFATYYCQHFWGTPLTFGQGTKVEIK
For the molecule B14, the EC50 turned out to be 1.4 ng/mL in assay [1] and 0.4 ng/mL in assay [2].

B15: hu15G11.v5 HC T53A (antibody, V domains shown)
VH: EVQLVQSGAEVKKPGASVKVSCKASGYTFTSYWMHWVRQAPGQRLEWIGEINPANGRTNYIEKFKSRATLTVDKSASTAYMELSSLRSEDTAVYYCARGTRAYHYWGQGTMVTVSS
VL: DIQMTQSPSSLSASVGDRVTITCRASDNLYSNLAWYQQKPGKSPKLLVYDATNLADGVPSRFSGSGSGTDYTLTISSLQPEDFATYYCQHFWGTPLTFGQGTKVEIK
Turning to B15, the results for the half-maximal effective concentration (EC50) in assay [1] and in assay [2] were 0.7 ng/mL and 0.3 ng/mL, respectively.

B16: hu15G11.v5 HC N52A (antibody, V domains shown)
VH: EVQLVQSGAEVKKPGASVKVSCKASGYTFTSYWMHWVRQAPGQRLEWIGEIAPTNGRTNYIEKFKSRATLTVDKSASTAYMELSSLRSEDTAVYYCARGTRAYHYWGQGTMVTVSS
VL: DIQMTQSPSSLSASVGDRVTITCRASDNLYSNLAWYQQKPGKSPKLLVYDATNLADGVPSRFSGSGSGTDYTLTISSLQPEDFATYYCQHFWGTPLTFGQGTKVEIK
B16: the results for the EC50 in assay [1] and in assay [2] were 0.9 ng/mL and 0.3 ng/mL, respectively.

B17: hu15G11.v5 HC T30A (antibody, V domains shown)
VH: EVQLVQSGAEVKKPGASVKVSCKASGYTFASYWMHWVRQAPGQRLEWIGEINPTNGRTNYIEKFKSRATLTVDKSASTAYMELSSLRSEDTAVYYCARGTRAYHYWGQGTMVTVSS
VL: DIQMTQSPSSLSASVGDRVTITCRASDNLYSNLAWYQQKPGKSPKLLVYDATNLADGVPSRFSGSGSGTDYTLTISSLQPEDFATYYCQHFWGTPLTFGQGTKVEIK
As for B17, the EC50 in assay [1] stood at 0.9 ng/mL; in assay [2], 0.4 ng/mL.

B18: hu15G11.v5 LC L29A (antibody, V domains shown)
VH: EVQLVQSGAEVKKPGASVKVSCKASGYTFTSYWMHWVRQAPGQRLEWIGEINPTNGRTNYIEKFKSRATLTVDKSASTAYMELSSLRSEDTAVYYCARGTRAYHYWGQGTMVTVSS
VL: DIQMTQSPSSLSASVGDRVTITCRASDNAYSNLAWYQQKPGKSPKLLVYDATNLADGVPSRFSGSGSGTDYTLTISSLQPEDFATYYCQHFWGTPLTFGQGTKVEIK
Consider B18, for which the EC50 in assay [1] stood at 0.9 ng/mL; in assay [2], 0.3 ng/mL.
